Measurements taken from paper PMC5014123 (Nature communications, 2015).
“And” between values parts separate entries of the source, which are not always exact repeats. Equal values may be shown once. Non-standard residues stand in square brackets, D forms with d.

What was measured:
MMP-2 = MMP-2 (UniProt P08253 30-660); assay: cell-based or functional assay
MMP-14 = MMP-14 (UniProt P50281 112-541); assay: cell-based or functional assay
native gel or EMSA = target: the molecule itself; assay: native gel or EMSA

Chain of MMP-2 (P08253 30-660): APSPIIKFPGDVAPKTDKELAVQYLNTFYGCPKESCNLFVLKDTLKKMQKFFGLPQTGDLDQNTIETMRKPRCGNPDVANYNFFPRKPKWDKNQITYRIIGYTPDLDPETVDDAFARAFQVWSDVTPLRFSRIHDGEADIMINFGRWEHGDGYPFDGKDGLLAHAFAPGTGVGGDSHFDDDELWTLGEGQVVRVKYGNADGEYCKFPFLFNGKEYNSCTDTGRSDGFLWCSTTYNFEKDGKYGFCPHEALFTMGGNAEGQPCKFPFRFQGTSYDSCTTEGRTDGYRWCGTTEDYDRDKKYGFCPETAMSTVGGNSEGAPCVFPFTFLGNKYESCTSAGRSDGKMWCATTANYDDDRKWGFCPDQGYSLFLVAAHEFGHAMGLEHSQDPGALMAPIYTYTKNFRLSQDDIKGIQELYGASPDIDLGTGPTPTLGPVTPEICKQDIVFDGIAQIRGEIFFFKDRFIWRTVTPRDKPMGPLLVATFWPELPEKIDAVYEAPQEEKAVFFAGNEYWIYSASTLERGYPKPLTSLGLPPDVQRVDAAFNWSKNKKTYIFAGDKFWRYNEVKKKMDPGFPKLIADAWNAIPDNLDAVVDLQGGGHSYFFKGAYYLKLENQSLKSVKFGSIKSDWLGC

| Binder | IC50 of inhibition of catalytic activity (substrate Mca-PLGL-Dpa-AR-NH2) (MMP-2) | IC50 of inhibition of catalytic activity (substrate Mca-KPLGL-Dpa-AR-NH2) (MMP-14) | stoichiometry N (native gel or EMSA) |
| --- | --- | --- | --- |
| cyclo(RL[dS]KDK) (SMILES CC(C)C[C@@H]1NC(=O)[C@H](CCCNC(=N)N)NC(=O)[C@H](CCCCN)NC(=O)[C@H](CC(=O)O)NC(=O)[C@H](CCCCN)NC(=O)[C@@H](CO)NC1=O) [cyclo-RLsKDK (BK-1361)] | > 10 µM | > 10 µM |  |
| Inactive recombinant human ADAM8 (Met1-Pro497) (domain or fragment, UniProt P78325-1 17-497, looked up) IAPSRPWALMEQYEVVLPWRLPGPRVRRALPSHLGLHPERVSYVLGATGHNFTLHLRKNRDLLGSGYTETYTAANGSEVTEQPRGQDHCFYQGHVEGYPDSAASLSTCAGLRGFFQVGSDLHLIEPLDEGGEGGRHAVYQAEHLLQTAGTCGVSDDSLGSLLGPRTAAVFRPRPGDSLPSRETRYVELYVVVDNAEFQMLGSEAAVRHRVLEVVNHVDKLYQKLNFRVVLVGLEIWNSQDRFHVSPDPSVTLENLLTWQARQRTRRHLHDNVQLITGVDFTGTTVGFARVSAMCSHSSGAVNQDHSKNPVGVACTMAHEMGHNLGMDHDENVQGCRCQERFEAGRCIMAGSIGSSFPRMFSDCSQAYLESFLERPQSVCLANAPDLSHLVGGPVCGNLFVERGEQCDCGPPEDCRNRCCNSTTCQLAEGAQCAHGTCCQECKVKPAGELCRPKKDMCDLEEFCDGRHPECPEDAFQENGTP |  |  | 2 and 3 |
